Laboratory results reported in patent publication US20240400708A1.
Numbering of substitutions follows the chain as printed. In names and notes the source's numbering stands. Each block holds one molecule with its values, some of them ahead of it.

Columns and labels:
[1] = target: feline FcRn complex (FcRn-α subunit and β-microglobulin) (feline); assay: SPR (Biacore), FcRn on SA chip, pH 6
[2] = target: feline FcRn complex (FcRn-α subunit and β-microglobulin) (feline); assay: SPR (Biacore), FcRn on SA chip, pH 7.4
[3] = target: feline FcRn complex (FcRn-α subunit and β-microglobulin), biotin labeled (feline); assay: SPR, pH 6
[4] = target: feline FcRn complex (FcRn-α subunit and β-microglobulin), biotin labeled (feline); assay: SPR, pH 7.4

Molecule: feline IgG1a mutant ID No. 357: S252Y, S434R, A431K (antibody)
- Kd [1]: 0.769 nM
- Kd [2]: 25.9 nM

Molecule: feline IgG1a mutant ID No. 358: S252Y, S434R, A431K (antibody)
- Kd [1]: 0.748 nM
- Kd [2]: 28.3 nM

Molecule: feline IgG1a mutant ID No. 278: S252R, S434H, Q311W (antibody)
- Kd [1]: 5.45 nM
- Kd [2]: 5910 nM

Molecule: feline IgG1a mutant ID No. 260: S252Y, S254T, T256E (antibody)
- Kd [1]: 13.2 nM
- Kd [2]: 66.5 nM

Molecule: feline IgG1a mutant ID No. 366: S252Y, S434R, E430I (antibody)
- Kd [1]: 0.322 nM
- Kd [2]: 26.1 nM

Molecule: feline IgG1a mutant ID No. 365: S252Y, S434R, E430I (antibody)
- Kd [1]: 0.296 nM
- Kd [2]: 28.9 nM

B2: feline IgG1a mutant ID No. 350: S252Y, S428M, S434F, Q311M (antibody, part only; not given: Variable domains, not shown: another chain or arm of the molecule)
constant: ASTTAPSVFPLAPSCGTTSGATVALACLVLGYFPEPVTVSWNSGALTSGVHTFPAVLQASGLYSLSSMVTVPSSRWLSDTFTCNVAHPPSNTKVDKTVRKTDHPPGPKPCDCPKCPPPEMLGGPSIFIFPPKPKDTLYISRTPEVTCLVVDLGPDDSDVQITWFVDNTQVYTAKTSPREEQFNSTYRVVSVLPILHMDWLKGKEFKCKVNSKSLPSPIERTISKAKGQPHEPQVYVLPPAQEELSRNKVSVTCLIKSFHPPDIAVEWEITGQPEPENNYRTTPPQLDSDGTYFVYSKLSVDRSHWQRGNTYTCSVMHEALHFHHTQKSLTQSPGK
- Kd [2]: 4.89 nM

B5: feline IgG1a S252M/S428M/S434N (antibody, part only; not given: Variable domains, not shown: another chain or arm of the molecule)
constant: B2 constant with Y138M, M197Q, F322N
- Kd [3]: 8.51 nM
- Kd [4]: 15.3 nM

B8: feline IgG1a D399V (antibody, part only; not given: Variable domains, not shown: another chain or arm of the molecule)
constant: B2 constant with Y138S, M197Q, D287V, M316S, F322S
- Kd [3]: 8.29 nM
- Kd [4]: 2880 nM

B9: feline IgG1a S252M/S434N (antibody, part only; not given: Variable domains, not shown: another chain or arm of the molecule)
constant: B2 constant with Y138M, M197Q, M316S, F322N
- Kd [3]: 14.8 nM
- Kd [4]: 33.8 nM

B10: feline IgG1a Q311F (antibody, part only; not given: Variable domains, not shown: another chain or arm of the molecule)
constant: B2 constant with Y138S, M197F, M316S, F322S
- Kd [3]: 8.85 nM
- Kd [4]: 1370 nM

B12: feline IgG1a S252H/S428M/S434P (antibody, part only; not given: Variable domains, not shown: another chain or arm of the molecule)
constant: B2 constant with Y138H, M197Q, F322P
- Kd [3]: 7.45 nM
- Kd [4]: 55.6 nM

B13: feline IgG1a mutant ID No. 249: S428M, L314K (antibody, part only; not given: variable domains and light chain, not shown: another chain or arm of the molecule; small tags and cut ends)
constant: B2 constant with Y138S, M197Q, L200K, F322S
- Kd [1]: 0.978 nM
- Kd [2]: 19300 nM

B16: feline IgG1a S252H/S434P (antibody, part only; not given: Variable domains, not shown: another chain or arm of the molecule)
constant: B2 constant with Y138H, M197Q, M316S, F322P
- Kd [3]: 9.32 nM
- Kd [4]: 12.8 nM

B18: feline IgG1a L309G (antibody, part only; not given: Variable domains, not shown: another chain or arm of the molecule)
constant: B2 constant with Y138S, L195G, M197Q, M316S, F322S
- Kd [3]: 9.12 nM
- Kd [4]: 54.5 nM

B19: feline IgG1a S252M/S428M/S434N/H436Y (antibody, part only; not given: Variable domains, not shown: another chain or arm of the molecule)
constant: B2 constant with Y138M, M197Q, F322N, H324Y
- Kd [3]: 20.5 nM
- Kd [4]: 28.7 nM

B20: feline IgG1a mutant ID No. 353: S252Y, S428M, S434F, S254V (antibody, part only; not given: Variable domains, not shown: another chain or arm of the molecule)
constant: B2 constant with S140V, M197Q
- Kd [2]: 6.68 nM

B34: feline IgG1a mutant ID No. 246: S252Y, S428M, S434W (antibody, part only; not given: Variable domains, not shown: another chain or arm of the molecule)
constant: B2 constant with M197Q, F322W
- Kd [1]: 0.0406 nM
- Kd [2]: 7.91 nM

B35: feline IgG1a Y404Q (antibody, part only; not given: Variable domains, not shown: another chain or arm of the molecule)
constant: B2 constant with Y138S, M197Q, Y292Q, M316S, F322S
- Kd [3]: 9.96 nM
- Kd [4]: 9940 nM

B38: feline IgG1a mutant ID No. 250: S428M, Q311W (antibody, part only; not given: Variable domains, not shown: another chain or arm of the molecule)
constant: B2 constant with Y138S, M197W, F322S
- Kd [1]: 5.56 nM
- Kd [2]: 33.2 nM

B40: feline IgG1a mutant ID No. 248: S428M, D312P (antibody, part only; not given: Variable domains, not shown: another chain or arm of the molecule)
constant: B2 constant with Y138S, M197Q, D198P, F322S
- Kd [1]: 5.7 nM
- Kd [2]: 23.7 nM

B41: feline IgG1a mutant ID No. 251: S428M, Q311Y (antibody, part only; not given: Variable domains, not shown: another chain or arm of the molecule)
constant: B2 constant with Y138S, M197Y, F322S
- Kd [1]: 5.83 nM
- Kd [2]: 20.3 nM

B42: feline IgG1a mutant ID No. 247: S252Y, S428M, S434Y (antibody, part only; not given: Variable domains, not shown: another chain or arm of the molecule)
constant: B2 constant with M197Q, F322Y
- Kd [1]: 0.0902 nM
- Kd [2]: 7.65 nM

B43: feline IgG1a mutant ID No. 323: S428Y, D312P, S434Y, D399M, D401R, T403R (antibody, part only; not given: Variable domains, not shown: another chain or arm of the molecule)
constant: B2 constant with Y138S, M197Q, D198P, D287M, D289R, T291R, M316Y, F322Y
- Kd [2]: 1300 nM

B44: feline IgG1a S252H/S428M/S434L (antibody, part only; not given: Variable domains, not shown: another chain or arm of the molecule)
constant: B2 constant with Y138H, M197Q, F322L
- Kd [3]: 8.59 nM
- Kd [4]: 3.55 nM

Results, then the molecule that gave them:

- Kd [3]: 0.121 nM
- Kd [4]: 26.9 nM
B1: feline IgG1a S252H/S428M/S434F (antibody, part only; not given: Variable domains, not shown: another chain or arm of the molecule)
constant: B2 constant with Y138H, M197Q

- Kd [3]: 2.13 nM
- Kd [4]: 25 nM
B3: feline IgG1a S252Y/S428M/L314K (antibody, part only; not given: Variable domains, not shown: another chain or arm of the molecule)
constant: B2 constant with M197Q, L200K, F322S

- Kd [3]: 7.27 nM
- Kd [4]: 19.5 nM
B4: feline IgG1a S252M/S428M (antibody, part only; not given: Variable domains, not shown: another chain or arm of the molecule)
constant: B2 constant with Y138M, M197Q, F322S

- Kd [3]: 4.85 nM
- Kd [4]: 1750 nM
B6: feline IgG1a Q311K (antibody, part only; not given: Variable domains, not shown: another chain or arm of the molecule)
constant: B2 constant with Y138S, M197K, M316S, F322S

- Kd [3]: 0.469 nM
- Kd [4]: 31.1 nM
B7: feline IgG1a S252H/S434W (antibody, part only; not given: Variable domains, not shown: another chain or arm of the molecule)
constant: B2 constant with Y138H, M197Q, M316S, F322W

- Kd [3]: 4.97 nM
- Kd [4]: 5100 nM
B11: feline IgG1a Q311M (antibody, part only; not given: Variable domains, not shown: another chain or arm of the molecule)
constant: B2 constant with Y138S, M316S, F322S

- Kd [3]: 0.391 nM
- Kd [4]: 24.1 nM
B14: feline IgG1a S252H/S434F (antibody, part only; not given: Variable domains, not shown: another chain or arm of the molecule)
constant: B2 constant with Y138H, M197Q, M316S

- Kd [3]: 4.56 nM
- Kd [4]: 67.2 nM
B15: feline IgG1a Q311R (antibody, part only; not given: Variable domains, not shown: another chain or arm of the molecule)
constant: B2 constant with Y138S, M197R, M316S, F322S

- Kd [3]: 7 nM
- Kd [4]: 77.1 nM
B17: feline IgG1a Q311I (antibody, part only; not given: Variable domains, not shown: another chain or arm of the molecule)
constant: B2 constant with Y138S, M197I, M316S, F322S

- Kd [3]: 6.1 nM
- Kd [4]: 1200 nM
B21: feline IgG1a G402R (antibody, part only; not given: Variable domains, not shown: another chain or arm of the molecule)
constant: B2 constant with Y138S, M197Q, G290R, M316S, F322S

- Kd [3]: 6.08 nM
- Kd [4]: 3.79 nM
B22: feline IgG1a S252H/S434L (antibody, part only; not given: Variable domains, not shown: another chain or arm of the molecule)
constant: B2 constant with Y138H, M197Q, M316S, F322L

- Kd [3]: 5.33 nM
- Kd [4]: 46.8 nM
B23: feline IgG1a D399M (antibody, part only; not given: Variable domains, not shown: another chain or arm of the molecule)
constant: B2 constant with Y138S, M197Q, D287M, M316S, F322S

- Kd [3]: 0.745 nM
- Kd [4]: 21 nM
B24: feline IgG1a S434F (antibody, part only; not given: Variable domains, not shown: another chain or arm of the molecule)
constant: B2 constant with Y138S, M197Q, M316S

- Kd [3]: 0.506 nM
- Kd [4]: 18.8 nM
B25: feline IgG1a S252Y/S428M/Q311W (antibody, part only; not given: Variable domains, not shown: another chain or arm of the molecule)
constant: B2 constant with M197W, F322S

- Kd [3]: 6.91 nM
- Kd [4]: 28.9 nM
B26: feline IgG1a S252Y/S428M/S434L (antibody, part only; not given: Variable domains, not shown: another chain or arm of the molecule)
constant: B2 constant with M197Q, F322L

- Kd [3]: 2.58 nM
- Kd [4]: 39.2 nM
B27: feline IgG1a S252Y/S428M (antibody, part only; not given: Variable domains, not shown: another chain or arm of the molecule)
constant: B2 constant with M197Q, F322S

- Kd [3]: 4.86 nM
- Kd [4]: 44.4 nM
B28: feline IgG1a S252Y/S428M/S434P (antibody, part only; not given: Variable domains, not shown: another chain or arm of the molecule)
constant: B2 constant with M197Q, F322P

- Kd [3]: 6.81 nM
- Kd [4]: 4530 nM
B29: feline IgG1a L309I (antibody, part only; not given: variable domains, not shown: another chain or arm of the molecule)
constant: B2 constant with Y138S, L195I, M197Q, M316S, F322S

- Kd [3]: 6.91 nM
- Kd [4]: 25 nM
B30: feline IgG1a D312R (antibody, part only; not given: Variable domains, not shown: another chain or arm of the molecule)
constant: B2 constant with Y138S, M197Q, D198R, M316S, F322S

- Kd [3]: 0.796 nM
- Kd [4]: 25.3 nM
B31: feline IgG1a S252Y/S428M/D312P (antibody, part only; not given: Variable domains, not shown: another chain or arm of the molecule)
constant: B2 constant with M197Q, D198P, F322S

- Kd [3]: 0.14 nM
- Kd [4]: 12.5 nM
B32: feline IgG1a S252H/S434Y (antibody, part only; not given: Variable domains, not shown: another chain or arm of the molecule)
constant: B2 constant with Y138H, M197Q, M316S, F322Y

- Kd [3]: 5.84 nM
- Kd [4]: 93.7 nM
B33: feline IgG1a Q311H (antibody, part only; not given: Variable domains, not shown: another chain or arm of the molecule)
constant: B2 constant with Y138S, M197H, M316S, F322S

- Kd [3]: 2.4 nM
- Kd [4]: 39.9 nM
B36: feline IgG1a S252Y/S428M/Q311Y (antibody, part only; not given: Variable domains, not shown: another chain or arm of the molecule)
constant: B2 constant with M197Y, F322S

- Kd [3]: 0.0207 nM
- Kd [4]: 9.13 nM
B37: feline IgG1a S252Y/S428M/S434F (antibody, part only; not given: Variable domains, not shown: another chain or arm of the molecule)
constant: B2 constant with M197Q

- Kd [3]: 0.138 nM
- Kd [4]: 20.7 nM
B39: feline IgG1a S252H/S428M/S434Y (antibody, part only; not given: Variable domains, not shown: another chain or arm of the molecule)
constant: B2 constant with Y138H, M197Q, F322Y

- Kd [3]: 0.135 nM
- Kd [4]: 20.8 nM
B45: feline IgG1a S252H/S428M/S434W (antibody, part only; not given: Variable domains, not shown: another chain or arm of the molecule)
constant: B2 constant with Y138H, M197Q, F322W
